This is an account of results in patent publication US20090176264A1 (ORTHO CLINICAL DIAGNOSTICS, published 2009).

The chains are these.
B1: Full length sFlt (soluble fms-like tyrosine kinase 1, sFlt-1), Scios Inc. Lot# 9225-89 (receptor)
chain: SKLKDPELSLKGTQHIMQAGQTLHLQCRGEAAHKWSLPEMVSKESERLSITKSACGRNGKQFCSTLTLNTAQANHTGFYSCKYLAVPTSKKKETESAIYIFISDTGRPFVEMYSEIPEIIHMTEGRELVIPCRVTSPNITVTLKKFPLDTLIPDGKRIIWDSRKGFIISNATYKEIGLLTCEATVNGHLYKTNYLTHRQTNTIIDVQISTPRPVKLLRGHTLVLNCTATTPLNTRVQMTWSYPDEKNKRASVRRRIDQSNSHANIFYSVLTIDKMQNKDKGLYTCRVRSGPSFKSVNTSVHIYDKAFITVKHRKQQVLETVAGKRSYRLSMKVKAFPSPEVVWLKDGLPATEKSARYLTRGYSLIIKDVTEEDAGNYTILLSIKQSNVFKNLTATLIVNVKPQIYEKAVSSFPDPALYPLGSRQILTCTAYGIPQPTIKWFWHPCNHNHSEARCDFCSNNEESFILDADSNMGNRIESITQRMAIIEGKNKMASTLVVADSRISGIYICIASNKVGTVGRNISFYITDVPNGFHVNLEKMPTEGEDLKLSCTVNKFLYRDVTWILLRTVNNRTMHYSISKQKMAITKEHSITLNLTIMNVSLQDSGTYACRARNVYTGEEILQKKEITIRGEHCNKKAVFSRISKFKSTRNDCTTQSNVKH
notes: also called recombinant sFlt
B2: P126(GAA): PlGF mutant #2 (ligand)
chain: MRGSAVPPQQWALSAGNGSSEVEVVPFQEVWGRSYCRALERLVDVVSEYPSEVEHMFSPSCVSLLRCTGCGGAANLHCVPVETANVTMQLLKIRSGDRPSYVELTFSQHVRCECRPLREKMKPERCGDAVGPGQIVGGVYLL

Assay [1] deals with T1, P126(DE): recombinant PlGF wild type (human).
T1 construct: also called unaltered PlGF
T1 chain: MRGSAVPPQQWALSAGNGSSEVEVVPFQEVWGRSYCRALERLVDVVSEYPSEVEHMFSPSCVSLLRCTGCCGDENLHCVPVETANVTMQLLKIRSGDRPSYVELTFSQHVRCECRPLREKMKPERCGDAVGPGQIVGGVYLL
Briefly: ELISA, coated PlGF, sFlt at 200 ng/mL, detected with RD-1 + RD-2 anti-sFlt.

In assay [2] the target is T2, P126(AA): PlGF mutant #1 (human).
T2 chain: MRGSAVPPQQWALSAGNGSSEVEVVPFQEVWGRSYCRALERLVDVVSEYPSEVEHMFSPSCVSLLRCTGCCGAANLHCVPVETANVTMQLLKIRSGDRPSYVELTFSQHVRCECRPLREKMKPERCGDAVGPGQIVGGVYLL
Described as above.

Assay [3] addresses B2. The assay is described as above.
Assay [4] deals with T1, P126(DE): recombinant PlGF wild type. Briefly: ELISA, coated PlGF, sFlt at 600 ng/mL, detected with RD-1 + RD-2 anti-sFlt. A general note: ELISA stands for enzyme-linked immunosorbent assay.
For assay [5], the target named is T2, P126(AA): PlGF mutant #1. Described as above.
Assay [6] concerns the target B2. The description is as above.
Assay [7] deals with T1, P126(DE): recombinant PlGF wild type. Briefly: ELISA, coated PlGF, sFlt at 1800 ng/mL, detected with RD-1 + RD-2 anti-sFlt.
Assay [8] deals with T2, P126(AA): PlGF mutant #1. The assay is described as above.
Assay [9] addresses B2. The assay is described as above.
Assay [10] concerns the target T1, P126(DE): recombinant PlGF wild type. Kind of assay: ELISA, coated PlGF, sFlt at 66.67 ng/mL, detected with RD-1 + RD-2 anti-sFlt.
Assay [11] has as its target T2, P126(AA): PlGF mutant #1. The description is as above.
The target of assay [12] is B2. Described as above.
In assay [13] the target is B1. Briefly: ELISA, sFlt coated 0.5 ug/mL, PlGF in solution, detected with Rat-4. Here is the method: High-binding microtiter plate was coated with recombinant sFlt at 0.5 ug/mL and blocked with BSA/PBS
Standard ELISA procedure consists of 1st plate incubation with diluted P126(DE) or P126(AA) or P126(GAA) in casein/PBS at various concentration, 2nd plate incubation with monoclonal anti-PlGF Rat-4 solution at 0.1 ug/mL, 3rd plate incubation with HRP conjugated donkey anti-Rat IgG at 1:4K dilution in casein/PBS and 4th plate incubation with 100 uL OPD substrate development for 25 C/30 min. 1st, 2nd and 3rd plate incubation step is at 37 C/15-20 min/shake; 6 times plate washing between each step. 25 uL stop solution after 4th incubation and record OD at 492 nm.

In the case of B1, the “OD at 492 nm” value in [1] was found to be 0.833 OD; with P126(AA): PlGF mutant #1 [2], 0.115 OD; in assay [3], 0.095 OD; in assay [4] it was 1.83 OD; with P126(AA): PlGF mutant #1 [5] it was 0.182 OD; in assay [6] it was 0.101 OD. In addition, the “OD at 492 nm” value in assay [7] is over 3 OD; with P126(AA): PlGF mutant #1 [8] it was 0.21 OD; in [9], 0.15 OD; in assay [10] it was 0.347 OD; in the assay with P126(AA): PlGF mutant #1 [11], 0.143 OD; in assay [12] it was 0.088 OD.
Take B2: the binding result in assay [13] is reported as “no binding (tested: 1000 ng/mL)”.
